Laboratory results as given in the supplement of paper PMC10201428.
± gives the standard deviation of the averaged measurements.

B1: library; a variant is named by its letters at N, in order (parent)
chain: AATGTTGTTGATGCAACCATAAAGTGATATTTAATAATTATTTATAATCAGCAACTTAACCACAAAACAACCATATATTGATATNTCACAAAACAACCATAANTTGATATTTTTGTGAATCGAGTATTTCAGCAAAACTACTGCAGTAAGAA

How the values were obtained:
[1] = variants of: B1; experiment: relative integration efficiency (T-LR orientation) vs wild-type transposon end (log2 (normalized fold change)); transposon end mutated: left end; higher = more efficient transposition; conditions: with VchCAST RNA-guided transposition machinery (E. coli BL21(DE3) host, lacZ target)
Protocol: (§1)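 Pooled, barcoded VchCAST (Tn6677) mini-transposon donor libraries; each variable transposon-end sequence sits in a fixed pDonor mini-transposon context (10-bp barcode and cargo not included). Left- or right-end libraries were co-transformed with pEffector (TniQ-Cascade, TnsABC, lacZ crRNA, T7, 0.1 mM IPTG) into E. coli BL21(DE3) and grown 18 h at 37 C. T-LR and T-RL junction amplicons were sequenced; output/input barcode fold change was normalised to the mean of four wild-type barcodes and log2-transformed. Two biological replicates; zero-count/undetected variants carry floor values (-10 / -15), censored here. Barcode uncoupling by PCR recombination adds noise.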

[2] = variants of: B1; experiment: relative integration efficiency (T-RL orientation) vs wild-type transposon end (log2 (normalized fold change)); transposon end mutated: left end; higher = more efficient transposition; conditions: with VchCAST RNA-guided transposition machinery (E. coli BL21(DE3) host, lacZ target)
Protocol: as §1

| Variant | relative integration efficiency (log2) [1] | relative integration efficiency (log2) [2] |
| --- | --- | --- |
| TA A23G G24T A33T T76A T78G C87A A96C T112G T113C | 0.535 ± 0.16 | 0.327 ± 0.1 |
| TA A23G G24T A33T T76A T78G C87A A102T T111C T113C | -0.451 ± 0.41 | -0.227 ± 0.17 |
| TA A23G G24T A33T T76A T78G C87A T104A T110A T113A | 0.283 ± 0.28 | 0.0976 ± 0.22 |
| TA A23G G24T A33T T76A T78G C87A T104G T113A | 0.453 ± 0.52 | -0.0355 ± 0.21 |
| CA A23G G24T A33T T104A T110A T113A | -0.166 ± 0.3 | -0.424 ± 0.22 |
| CA A23G G24T A33T T104G T113A | 0.0933 ± 0.62 | -0.0946 ± 0.2 |
| TA A70C T76A T84A C87A A96C T110A T113A | 0.233 ± 0.15 | 0.0312 ± 0.25 |
| TA A70C T76A T84A C87A A96C T112G T113C | -0.389 ± 0.085 | -0.122 ± 0.12 |
| TA A70C T76A T84A C87A A102T T111C T113C | 0.619 ± 0.14 | 0.128 ± 0.4 |
| TA A70C T76A T84A C87A T104A T110A T113A | 0.319 ± 0.13 | -0.146 ± 0.28 |
| TA A70C T76A T84A C87A T104G T113A | 0.771 ± 0.098 | 0.69 ± 0.33 |
| TA A70C T76A T86G A96C T110A T113A | -0.0134 ± 0.035 | -0.255 ± 0.15 |
| TA A70C T76A T86G A96C T112G T113C | 0.367 ± 0.4 | -0.132 ± 0.23 |
| TA A70C T76A T86G A102T T111C T113C | -0.561 ± 0.29 | -0.418 ± 0.19 |
| TA A70C T76A T86G T104A T110A T113A | 0.0387 ± 0.67 | -0.344 ± 0.23 |
| TA A70C T76A T86G T104G T113A | 0.359 ± 0.88 | -0.145 ± 0.22 |
| CA A96C T110A T113A | 0.444 ± 0.43 | 0.00902 ± 0.34 |
| CA A96C T112G T113C | -0.564 ± 0.17 | -0.326 ± 0.1 |
| CA A102T T111C T113C | 0.118 ± 0.59 | -0.254 ± 0.41 |
| TA G24A T30A A70C T76A T84A C87A A96C T110A T113A | 0.37 ± 0.55 | 0.271 ± 0.25 |
| TA G24A T30A A70C T76A T84A C87A A96C T112G T113C | 0.302 ± 0.58 | 0.326 ± 0.17 |
| TA G24A T30A A70C T76A T84A C87A A102T T111C T113C | -0.133 ± 0.92 | -0.0645 ± 0.27 |
| TA G24A T30A A70C T76A T84A C87A T104A T110A T113A | -0.0484 ± 0.45 | -0.389 ± 0.28 |
| TA G24A T30A A70C T76A T84A C87A T104G T113A | 0.182 ± 0.22 | 0.0306 ± 0.22 |
| TA G24A T30A A70C T76A T86G A96C T110A T113A | 0.0588 ± 0.23 | -0.265 ± 0.38 |
| TA G24A T30A A70C T76A T86G A96C T112G T113C | 0.18 ± 0.5 | 0.313 ± 0.07 |
| TA G24A T30A A70C T76A T86G A102T T111C T113C | -0.456 ± 0.08 | -0.229 ± 0.18 |
| TA G24A T30A A70C T76A T86G T104A T110A T113A | -0.21311 ± 4.7e-05 | -0.36 ± 0.27 |
| TA G24A T30A A70C T76A T86G T104G T113A | -0.0684 ± 0.51 | -0.533 ± 0.11 |
